Data: patent US20240376170A1
Bridges are numbered along the chain shown (N, C = ends). Primed or numbered codes have the meaning given here. [ ]: non-standard residue; d: D form. Ygp(4) = Tyr with amino-capped PEG8 (O-(8x polyethylene glycol-amino)-tyrosine); Yn3(4) = Tyr with azide-capped PEG9 (O-(9x polyethylene glycol-azido)-tyrosine); PEG9″ = 9x polyethylene glycol spacer; PEG4′ = 4x polyethylene glycol; PEG9′ = 9x polyethylene glycol; hSer = N[C@@H](CCO)C(=O)O; Nle = CCCC[C@H](N)C(=O)O

B1: CMP-159, MMP2 cleaved (ligand)
chain: PLGLAGAPTSSSTKKTQLQLEHLLLDLE[Nle]ILNGINNYKNPKLTR[Nle]L[hSer][Yn3(4)]KF[Ygp(4)][Nle]PKKATELKHLQCLEEELKPLEEVL[hSer]LAQSKNFHLRPRDLISNINVIVLELKGSETTF[hSer]CEYADETATIVEFLNRWITFSQSIISTLT
modifications: linker N-28 via PEG4′; not fully specified (N-terminus); ends not checked; also: cut by MMP2 in the PLGLAG linker, site not given here, ring opened
B2: CMP-152 (ligand)
chain: PLGLAGAPTSSSTKKTQLQLEHLLLDLQXILNGINNYKNPKLTRXLXYKFYXPKKATELKHLQCLEEELKPLEEVLXLAQSKNFHLRPRDLISNINVIVLELKGSETTFXCEYADETATIVEFLNRWITFSQSIISTLT
modifications: not fully specified; Nle, Hse, Yn3 (Tyr with azide-capped PEG9), Ygp (Tyr with amino-capped PEG8) as printed in Table 3; PEG9-PLGLAG on the N-terminus, cyclised through glutaryl to the side chain of Lys 32
B3: CMP-161, MMP2 cleaved (ligand)
chain: PLGLAGAPTSSSTKKTQLQLEHLLLDLQ[Nle]ILEGINNYKNPKLTR[Nle]L[hSer][Yn3(4)]KF[Ygp(4)][Nle]PKKATELKHLQCLEEELKPLEEVL[hSer]LAQSKNFHLRPRDLISNINVIVLELKGSETTF[hSer]CEYADETATIVEFLNRWITFSQSIISTLT
modifications: not fully specified (N-terminus, bridges); ends and bridges not checked; also: cut by MMP2 in the PLGLAG linker, site not given here, ring opened
B4: CMP-152, MMP2 cleaved (ligand)
chain: PLGLAGAPTSSSTKKTQLQLEHLLLDLQ[Nle]ILNGINNYKNPKLTR[Nle]L[hSer][Yn3(4)]KF[Ygp(4)][Nle]PKKATELKHLQCLEEELKPLEEVL[hSer]LAQSKNFHLRPRDLISNINVIVLELKGSETTF[hSer]CEYADETATIVEFLNRWITFSQSIISTLT
modifications: linker N-38 via glutaryl‑PEG9; not fully specified (N-terminus); ends not checked; also: cleavable peptide cut by MMP2, site not given here
B5: CMP-154, MMP2 cleaved (ligand)
chain: PLGLAGAPTSSSTKKTQLQLEHLLLDLQ[Nle]ILNGIENYKNPKLTR[Nle]L[hSer][Yn3(4)]KF[Ygp(4)][Nle]PKKATELKHLQCLEEELKPLEEVL[hSer]LAQSKNFHLRPRDLISNINVIVLELKGSETTF[hSer]CEYADETATIVEFLNRWITFSQSIISTLT
modifications: linker N-35 via PEG9′; not fully specified (N-terminus); ends not checked; also: cleavable peptide cut by MMP2, site not given here
B6: CMP-161 (ligand)
chain: PLGLAGAPTSSSTKKTQLQLEHLLLDLQ[Nle]ILEGINNYKNPKLTR[Nle]L[hSer][Yn3(4)]KF[Ygp(4)][Nle]PKKATELKHLQCLEEELKPLEEVL[hSer]LAQSKNFHLRPRDLISNINVIVLELKGSETTF[hSer]CEYADETATIVEFLNRWITFSQSIISTLT
modifications: linker N-32 via PEG9″; not fully specified (N-terminus); ends not checked
B7: CMP-154 (ligand)
chain: PLGLAGAPTSSSTKKTQLQLEHLLLDLQ[Nle]ILNGIENYKNPKLTR[Nle]L[hSer][Yn3(4)]KF[Ygp(4)][Nle]PKKATELKHLQCLEEELKPLEEVL[hSer]LAQSKNFHLRPRDLISNINVIVLELKGSETTF[hSer]CEYADETATIVEFLNRWITFSQSIISTLT
modifications: linker N-35 via PEG9′; not fully specified (N-terminus); ends not checked
B8: CMP-159 (ligand)
chain: PLGLAGAPTSSSTKKTQLQLEHLLLDLE[Nle]ILNGINNYKNPKLTR[Nle]L[hSer][Yn3(4)]KF[Ygp(4)][Nle]PKKATELKHLQCLEEELKPLEEVL[hSer]LAQSKNFHLRPRDLISNINVIVLELKGSETTF[hSer]CEYADETATIVEFLNRWITFSQSIISTLT
modifications: linker N-28 via PEG4′; not fully specified (N-terminus); ends not checked

These binders were tested against IL-2Rβγ (CD122+, CD132+) on HEK-Blue IL-2Rβγ reporter cells (UniProt P14784) (assay: cell-based or functional assay).
Chain of IL-2Rβγ (CD122+, CD132+) on HEK-Blue IL-2Rβγ reporter cells (P14784 27-551 limits assumed, chain 1 of 2): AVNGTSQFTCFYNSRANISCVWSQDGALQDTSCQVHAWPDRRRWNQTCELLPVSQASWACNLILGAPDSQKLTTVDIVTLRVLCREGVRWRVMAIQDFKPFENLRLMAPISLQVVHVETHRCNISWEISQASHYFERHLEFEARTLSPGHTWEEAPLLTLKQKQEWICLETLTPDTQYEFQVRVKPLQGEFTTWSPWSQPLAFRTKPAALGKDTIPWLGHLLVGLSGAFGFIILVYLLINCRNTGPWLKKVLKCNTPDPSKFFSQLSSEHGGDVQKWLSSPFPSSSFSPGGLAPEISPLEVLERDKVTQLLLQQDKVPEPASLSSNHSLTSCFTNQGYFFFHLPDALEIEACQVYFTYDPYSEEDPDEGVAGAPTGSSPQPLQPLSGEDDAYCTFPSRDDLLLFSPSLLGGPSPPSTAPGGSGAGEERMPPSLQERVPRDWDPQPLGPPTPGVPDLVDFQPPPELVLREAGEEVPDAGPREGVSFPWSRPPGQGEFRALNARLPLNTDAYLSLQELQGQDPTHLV
Chain of IL-2Rβγ (CD122+, CD132+) on HEK-Blue IL-2Rβγ reporter cells (P31785 23-369 limits assumed, chain 2 of 2, further chain): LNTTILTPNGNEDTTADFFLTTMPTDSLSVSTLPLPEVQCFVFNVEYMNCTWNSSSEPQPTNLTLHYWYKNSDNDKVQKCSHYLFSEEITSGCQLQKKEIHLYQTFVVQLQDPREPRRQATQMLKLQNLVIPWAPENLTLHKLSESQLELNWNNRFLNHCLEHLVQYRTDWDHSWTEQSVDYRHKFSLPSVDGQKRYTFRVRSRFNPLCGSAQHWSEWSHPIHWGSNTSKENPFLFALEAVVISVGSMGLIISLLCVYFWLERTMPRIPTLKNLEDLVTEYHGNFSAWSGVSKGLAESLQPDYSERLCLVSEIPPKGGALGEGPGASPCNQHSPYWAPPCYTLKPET

Row | Average EC50 (nM), HEK-Blue IL-2R (CD122+, CD132+) Reporter Assay [nM] | Binder
1 | 0.0071 | B1
2 | 0.0597 | B2
3 | 0.0118 | B3
4 | 0.0064 | B4
5 | 0.0059 | B5
6 | 0.168 | B6
7 | 0.106 | B7
8 | 0.192 | B8
